Source: patent publication US20200102387A1 (CELGENE, published 2020)

Legend:
[1] = target: T1, SIRPγ extracellular domain (human, UniProt Q9P1W8 29-360); assay: SPR Biacore T200, antibody on Protein A chip, 1:1 Langmuir fit
T1 construct: also called hSIRPγ - ECD

[2] = target: T2, SIRPβ extracellular domain (human, UniProt O00241 30-371); assay: as above
T2 construct: also called hSIRPβ - ECD
T2 chain: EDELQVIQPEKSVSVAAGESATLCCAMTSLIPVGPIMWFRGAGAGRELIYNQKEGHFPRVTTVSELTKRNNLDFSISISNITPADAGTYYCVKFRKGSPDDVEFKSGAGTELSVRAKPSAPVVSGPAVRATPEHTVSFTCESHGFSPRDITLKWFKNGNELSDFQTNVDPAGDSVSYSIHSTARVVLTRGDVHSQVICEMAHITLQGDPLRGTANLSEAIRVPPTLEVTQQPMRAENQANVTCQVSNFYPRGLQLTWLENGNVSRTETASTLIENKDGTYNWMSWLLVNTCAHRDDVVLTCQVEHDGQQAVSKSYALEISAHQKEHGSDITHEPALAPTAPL

[3] = target: T3, extracellular domain of SIRPα v1-DLN (e.g. SIRPα1) (human, UniProt P78324 31-373); assay: as above
T3 construct: also called hSIRPα - ECD (v1)

[4] = target: T4, mouse SIRPα on cells (mouse, UniProt P97797 32-513); assay: flow cytometry, C57/BL6 macrophages, anti-human Fc detection; C57/BL6 macrophages (whole cells), not SIRPα-CHO-K1
T4 construct: whole, on cells; also called mouse SIRPα-CHO-K1; Ms SIRPα-CHO-K1
T4 sequence (looked up): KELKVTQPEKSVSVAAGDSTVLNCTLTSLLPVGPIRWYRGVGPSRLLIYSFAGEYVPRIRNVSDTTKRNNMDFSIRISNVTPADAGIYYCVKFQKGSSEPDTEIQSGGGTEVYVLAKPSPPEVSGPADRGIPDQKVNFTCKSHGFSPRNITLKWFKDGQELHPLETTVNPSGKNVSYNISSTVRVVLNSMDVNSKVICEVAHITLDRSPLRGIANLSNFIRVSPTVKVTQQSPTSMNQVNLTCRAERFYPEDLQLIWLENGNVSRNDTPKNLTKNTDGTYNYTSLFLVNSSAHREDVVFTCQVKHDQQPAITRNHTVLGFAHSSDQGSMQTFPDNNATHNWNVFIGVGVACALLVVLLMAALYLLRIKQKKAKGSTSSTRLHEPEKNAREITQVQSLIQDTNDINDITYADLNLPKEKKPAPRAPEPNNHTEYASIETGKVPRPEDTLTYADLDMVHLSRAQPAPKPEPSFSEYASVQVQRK

[5] = target: T4, mouse SIRPα on cells; assay: flow cytometry competition on C57/BL6 macrophages, competitor mCD47-hFc 6.7 nM, antibody at 0.5 nM or more
[6] = target: T4, mouse SIRPα on cells; assay: flow cytometry, C57BL/6-CD11b+ Cell Binding
[7] = target: T5, cynomolgus SIRPα on cells (cynomolgus, UniProt P78324 31-373 (human entry)); assay: flow cytometry of cynomolgus whole blood, gated CD14+ cells, Donor 2
T5 construct: also called cyno SIRPα-CHO; Cyno SIRPα-CHO-K1; not shown: Transmembrane and cytoplasmic region of cynomolgus SIRPα
T5 chain: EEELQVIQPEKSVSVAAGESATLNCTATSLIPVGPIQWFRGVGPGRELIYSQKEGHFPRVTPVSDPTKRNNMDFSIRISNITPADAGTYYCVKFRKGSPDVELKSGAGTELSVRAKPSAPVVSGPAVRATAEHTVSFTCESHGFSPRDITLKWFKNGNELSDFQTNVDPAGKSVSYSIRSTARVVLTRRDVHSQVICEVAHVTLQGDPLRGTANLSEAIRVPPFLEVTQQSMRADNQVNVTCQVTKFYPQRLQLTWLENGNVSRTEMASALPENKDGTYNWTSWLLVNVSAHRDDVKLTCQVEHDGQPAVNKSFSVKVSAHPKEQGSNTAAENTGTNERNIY

[8] = target: T5, cynomolgus SIRPα on cells; assay: flow cytometry of cynomolgus whole blood, gated CD14+ cells, Donor 1
[9] = target: T5, cynomolgus SIRPα on cells; assay: flow cytometry, cyno whole blood, gated CD14+ population, PE-conjugated antibody, one of two donors
[10] = target: T6, FcγR3A (CD16aV158) (human, UniProt P08637 17-254); assay: cell binding, FcγR-engineered HEK293 cells
T6 construct: whole, on cells
T6 sequence (P08637 17-254 F176V): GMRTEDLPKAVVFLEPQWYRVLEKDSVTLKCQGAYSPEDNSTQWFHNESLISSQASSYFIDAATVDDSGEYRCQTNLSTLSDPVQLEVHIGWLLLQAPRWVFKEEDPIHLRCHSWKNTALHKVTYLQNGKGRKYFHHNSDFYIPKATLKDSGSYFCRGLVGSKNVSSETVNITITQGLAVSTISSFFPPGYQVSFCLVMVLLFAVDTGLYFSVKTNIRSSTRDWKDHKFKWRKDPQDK

[11] = target: T7, FcγR2B (human, UniProt P31994 43-310); assay: cell binding, FcγR-engineered HEK293 cells
T7 construct: whole, on cells
T7 sequence (looked up): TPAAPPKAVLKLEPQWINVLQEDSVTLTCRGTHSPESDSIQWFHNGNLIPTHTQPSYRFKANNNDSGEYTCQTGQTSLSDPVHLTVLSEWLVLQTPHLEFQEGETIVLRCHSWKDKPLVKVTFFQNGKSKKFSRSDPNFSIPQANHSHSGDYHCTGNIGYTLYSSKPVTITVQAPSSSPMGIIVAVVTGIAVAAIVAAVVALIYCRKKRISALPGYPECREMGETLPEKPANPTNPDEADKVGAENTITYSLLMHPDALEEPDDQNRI

[12] = target: T8, FcγR1 (CD64) (human, UniProt P12314 16-374); assay: cell binding, FcγR-engineered HEK293 cells
T8 construct: whole, on cells
T8 sequence (P12314 16-374): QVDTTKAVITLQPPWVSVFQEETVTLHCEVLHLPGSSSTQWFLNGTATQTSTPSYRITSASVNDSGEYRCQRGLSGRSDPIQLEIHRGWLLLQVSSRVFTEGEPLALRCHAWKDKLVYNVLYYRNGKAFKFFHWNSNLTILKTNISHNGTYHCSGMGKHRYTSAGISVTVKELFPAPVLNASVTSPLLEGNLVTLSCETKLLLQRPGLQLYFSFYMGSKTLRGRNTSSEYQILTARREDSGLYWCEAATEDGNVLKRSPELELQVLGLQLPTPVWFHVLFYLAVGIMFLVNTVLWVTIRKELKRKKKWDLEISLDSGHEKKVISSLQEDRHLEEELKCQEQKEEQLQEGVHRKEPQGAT

T1 sequence (Q9P1W8 29-360 limits assumed): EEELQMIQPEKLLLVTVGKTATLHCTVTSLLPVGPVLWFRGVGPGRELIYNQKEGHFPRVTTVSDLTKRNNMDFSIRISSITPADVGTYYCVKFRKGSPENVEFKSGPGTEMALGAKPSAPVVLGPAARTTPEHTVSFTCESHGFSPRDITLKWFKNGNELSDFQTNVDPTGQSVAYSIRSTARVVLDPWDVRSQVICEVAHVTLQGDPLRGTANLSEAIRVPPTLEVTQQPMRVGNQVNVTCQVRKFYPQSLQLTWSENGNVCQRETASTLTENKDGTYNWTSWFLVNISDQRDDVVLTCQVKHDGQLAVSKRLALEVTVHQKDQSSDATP

B1: … ANTIBODY (SIRPα reference antibody with light chain SEQ ID NO:224 and heavy chain SEQ ID NO:225) (antibody, human IgG1, kappa, V domains shown)
VH: EVQLQQSGAELVKPGASVKLSCTASGFNIKDYYIHWVQQRTEQGLEWIGRIDPEDGETKYAPKFQDKATITADTSSNTAYLHLSSLTSEDTAVYYCARWGAYWGQGTLVTVSA
VL: QIVLTQSPAIMSASPGEKVTLTCSASSSVSSSYLYWYQQKPGSSPKLWIYSTSNLASGVPARFSGSGSGTSYSLTISSMEAEDAASYFCHQWSSYPRTFGAGTKLELKR
Kd [1]: 1.47 nM | Kd [2]: 2.98 nM | Kd [3]: 3.65 nM

B2: mCD47-hFc (Fc fusion, mouse, UniProt Q61735 19-140, looked up, not shown: a dimerising Fc or GST)
chain: QLLFSNVNSIEFTSCNETVVIPCIVRNVEAQSTEEMFVKWKLNKSYIFIYDGNKNSTTTDQNFTSAKISVSDLINGIASLKMDKRDAMVGNYTCEVTELSREGKTVIELKNRTVSWFSPNEK
notes: also called recombinant mouse CD47
EC50 [4]: 6.7 nM

B3: SIRPAB-21 with mouse IgG2a (antibody, V domains shown)
VH: QVQLQESGPGLVKPSQTLSLTCTVSGGSISSGGYYWSWIRQHPGKGLEWIGAIYYSGPIYYNPSLKSRVTISVDTSKNQFSLKLSSVTAADTAVYYCSKEGYHSGMDVWGQGTTVTVSS
VL: DIQMTQSPSSLSASVGDRVTITCQASDDISDYLNWYQQKPGKAPKLLIYDASNLETGVPSRFSGSGSGTDFTFTISSLQPEDIATYYCQQFAYLPWTFGGGTKVEIK
percent of mCD47 binding blocked [5]: > 90% | EC50 (read off the curve) [6]: ~0.3 nM

B4: SIRPAB-12-K322A (antibody, human IgG1, kappa)
light: DIQMTQSPSSVSASVGDRVTITCRASQGISSWLAWYQQKPGKAPKLLIYAASNLQSGVPSRFSGSGSGTDFTLTISSLQPEDFATYYCQQGASFPITFGGGTKVEIKRTVAAPSVFIFPPSDEQLKSGTASVVCLLNNFYPREAKVQWKVDNALQSGNSQESVTEQDSKDSTYSLSSTLTLSKADYEKHKVYACEVTHQGLSSPVTKSFNRGEC
heavy: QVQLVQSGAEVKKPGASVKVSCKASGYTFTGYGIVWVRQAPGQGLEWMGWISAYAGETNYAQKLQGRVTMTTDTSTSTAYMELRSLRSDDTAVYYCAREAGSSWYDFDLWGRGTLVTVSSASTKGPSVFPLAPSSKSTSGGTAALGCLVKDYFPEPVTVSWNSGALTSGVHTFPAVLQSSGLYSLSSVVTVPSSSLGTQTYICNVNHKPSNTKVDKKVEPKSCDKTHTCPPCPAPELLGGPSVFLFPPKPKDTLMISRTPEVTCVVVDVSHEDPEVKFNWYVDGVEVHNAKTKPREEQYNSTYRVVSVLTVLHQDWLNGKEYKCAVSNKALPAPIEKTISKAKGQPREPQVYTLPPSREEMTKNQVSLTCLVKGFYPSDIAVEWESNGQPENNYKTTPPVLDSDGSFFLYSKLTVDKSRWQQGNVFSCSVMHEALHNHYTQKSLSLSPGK
notes: human IgG1 with K322A
Kd [1]: 0.351 nM | Kd [2]: 2.08 nM | Kd [3]: 0.424 nM

B5: SIRPAB-11-4PE (antibody, human IgG4 S228P, kappa)
light: B4 light
heavy: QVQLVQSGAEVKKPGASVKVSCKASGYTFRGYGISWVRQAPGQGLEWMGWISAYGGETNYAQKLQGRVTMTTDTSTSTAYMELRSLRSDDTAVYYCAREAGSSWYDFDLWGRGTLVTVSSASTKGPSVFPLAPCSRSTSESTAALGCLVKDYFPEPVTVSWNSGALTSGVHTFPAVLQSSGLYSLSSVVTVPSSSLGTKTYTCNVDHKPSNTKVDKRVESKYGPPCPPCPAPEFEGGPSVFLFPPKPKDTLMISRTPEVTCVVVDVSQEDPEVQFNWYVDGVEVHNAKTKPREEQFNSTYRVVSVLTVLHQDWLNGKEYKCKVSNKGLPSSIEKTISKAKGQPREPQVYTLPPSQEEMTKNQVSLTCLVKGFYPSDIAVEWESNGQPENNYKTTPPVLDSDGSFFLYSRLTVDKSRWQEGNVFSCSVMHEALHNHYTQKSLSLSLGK
notes: human IgG4 with S228P and L235E; also called SIRPAB-11-IgG4PE; SIRPAB-11-IgG4PE-AF647
EC50 [7]: 0.39 nM | EC50 [8]: 0.426 nM | EC50 [9]: 0.43 nM | EC50 [10]: 2060 nM | EC50 [11]: 5180 nM | EC50 [12]: 756 nM
